The values that follow come from patent EP4578463A1, “ENDO-180 TARGETED ANTIBODY-DRUG CONJUGATES” (Oncomatryx Biopharma, S.L., priority 2023, dated 2025).

Test [1] deals with T1, Endo180 on cells (Endo180-expressing HT1080-WT cells; Endo180-transfected HEK293-Endo180 cells) (UniProt Q9UBG0 31-1479).
T1 construct: whole, on cells; One molecule is used for the endogenous protein on HT1080-WT and the transfected protein on HEK293-Endo180; also called uPARAP
T1 sequence (looked up): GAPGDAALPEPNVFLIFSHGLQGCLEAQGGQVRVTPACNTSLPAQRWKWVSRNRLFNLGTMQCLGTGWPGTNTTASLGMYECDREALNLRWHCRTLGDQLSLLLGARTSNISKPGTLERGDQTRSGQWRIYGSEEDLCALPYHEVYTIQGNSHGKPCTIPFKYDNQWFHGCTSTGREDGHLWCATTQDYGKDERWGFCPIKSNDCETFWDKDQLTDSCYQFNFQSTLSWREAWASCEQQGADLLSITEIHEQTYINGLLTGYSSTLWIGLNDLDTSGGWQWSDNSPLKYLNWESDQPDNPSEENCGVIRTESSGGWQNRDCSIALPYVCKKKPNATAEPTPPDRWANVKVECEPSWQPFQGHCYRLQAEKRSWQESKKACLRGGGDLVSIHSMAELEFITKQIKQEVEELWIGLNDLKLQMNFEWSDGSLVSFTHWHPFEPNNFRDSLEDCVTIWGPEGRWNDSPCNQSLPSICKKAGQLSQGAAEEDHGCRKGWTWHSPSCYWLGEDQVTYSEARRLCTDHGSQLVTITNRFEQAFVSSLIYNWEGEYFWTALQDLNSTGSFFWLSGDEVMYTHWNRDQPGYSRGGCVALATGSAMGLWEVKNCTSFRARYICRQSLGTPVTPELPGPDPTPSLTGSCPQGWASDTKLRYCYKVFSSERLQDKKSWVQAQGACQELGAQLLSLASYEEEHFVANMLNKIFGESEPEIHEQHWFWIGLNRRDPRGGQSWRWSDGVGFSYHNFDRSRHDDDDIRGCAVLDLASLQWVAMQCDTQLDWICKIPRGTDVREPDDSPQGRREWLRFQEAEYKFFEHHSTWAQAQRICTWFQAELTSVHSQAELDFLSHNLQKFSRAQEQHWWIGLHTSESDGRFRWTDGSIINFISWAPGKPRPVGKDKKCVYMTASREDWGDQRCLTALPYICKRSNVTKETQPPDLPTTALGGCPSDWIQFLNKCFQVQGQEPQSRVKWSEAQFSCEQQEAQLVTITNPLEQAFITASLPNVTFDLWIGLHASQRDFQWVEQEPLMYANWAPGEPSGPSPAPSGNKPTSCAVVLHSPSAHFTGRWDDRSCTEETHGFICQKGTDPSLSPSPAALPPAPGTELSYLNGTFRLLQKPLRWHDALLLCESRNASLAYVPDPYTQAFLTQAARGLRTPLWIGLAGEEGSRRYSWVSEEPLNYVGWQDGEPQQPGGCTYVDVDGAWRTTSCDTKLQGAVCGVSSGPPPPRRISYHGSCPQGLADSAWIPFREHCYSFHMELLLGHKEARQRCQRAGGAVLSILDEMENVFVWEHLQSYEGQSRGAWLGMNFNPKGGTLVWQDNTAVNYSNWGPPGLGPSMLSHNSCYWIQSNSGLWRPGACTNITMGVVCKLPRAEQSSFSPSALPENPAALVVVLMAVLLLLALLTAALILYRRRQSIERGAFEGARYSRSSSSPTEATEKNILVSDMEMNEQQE
Kind of test: flow cytometry on HEK293-Endo180 cells.

For test [2], the target named is T2, human Endo180-His (aa: 31-513; comprising the first four N-terminal domains) (human, UniProt Q9UBG0 31-513).
T2 construct: In-house produced; also called huEndo; human Endo180-His molecule; not shown: His tag
T2 sequence: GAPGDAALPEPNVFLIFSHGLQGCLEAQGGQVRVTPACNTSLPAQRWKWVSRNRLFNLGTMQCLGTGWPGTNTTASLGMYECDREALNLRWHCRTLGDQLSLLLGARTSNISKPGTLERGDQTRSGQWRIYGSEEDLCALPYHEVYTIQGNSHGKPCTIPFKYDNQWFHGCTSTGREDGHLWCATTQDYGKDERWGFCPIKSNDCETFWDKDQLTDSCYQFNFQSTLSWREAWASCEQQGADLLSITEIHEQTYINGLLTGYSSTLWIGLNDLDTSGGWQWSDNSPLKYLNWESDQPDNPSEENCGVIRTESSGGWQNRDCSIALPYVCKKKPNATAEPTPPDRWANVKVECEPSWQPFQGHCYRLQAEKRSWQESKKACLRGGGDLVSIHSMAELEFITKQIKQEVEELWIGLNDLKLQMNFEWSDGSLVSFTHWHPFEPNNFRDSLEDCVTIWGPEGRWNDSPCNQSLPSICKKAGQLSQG
Kind of test: ELISA, immobilized human Endo180-His.

Test [3] addresses T3, human Endo180-moFc domain I (aa 31-173) (human, UniProt Q9UBG0 31-173).
T3 construct: also called huEndo180-moFc DI; not shown: murine Fc domain
T3 sequence: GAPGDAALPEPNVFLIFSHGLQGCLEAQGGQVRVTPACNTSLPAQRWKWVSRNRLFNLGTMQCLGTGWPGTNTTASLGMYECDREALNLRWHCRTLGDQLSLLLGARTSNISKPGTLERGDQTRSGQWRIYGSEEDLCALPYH
Put plainly: ELISA, immobilized human Endo180-moFc domains.

The target of test [4] is T4, human Endo180-moFc domains I-II (aa 31-232) (human, UniProt Q9UBG0 31-232).
T4 construct: also called huEndo180-moFc DI-II; not shown: murine Fc domain
T4 sequence: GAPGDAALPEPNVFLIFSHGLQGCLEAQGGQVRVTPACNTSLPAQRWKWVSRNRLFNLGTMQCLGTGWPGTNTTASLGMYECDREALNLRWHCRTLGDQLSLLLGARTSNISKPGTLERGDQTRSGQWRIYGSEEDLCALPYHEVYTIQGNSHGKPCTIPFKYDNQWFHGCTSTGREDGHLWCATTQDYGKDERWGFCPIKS
Kind of test: ELISA, immobilized human Endo180-moFc domains.

For test [5], the target named is T1, Endo180 on cells (Endo180-expressing …). Kind of test: flow cytometry on HT1080-WT cells.

B1: Human IgG1 G7V with a wildtype γ1 heavy chain (antibody, V domains shown)
VH: EVQLVESGGGLVKPGGSLRLSCAASGFTFSSYSMNWVRQAPGKGLEWVANIKPDGSERHSVDSVKGRFTISRDNSKNSLYLQMNSLRAEDTAVYYCARPGAGRLDYWGQGTLVTVSS
VL: SSELTQDPAVSVALGQTVRITCQGDSLRSYYASWYQQKPGQAPVLVVYGKNNRPSGIPDRFSGSSSGNTASLTITGAQAEDEADYYCNSRDSSGNPWAFGGGTKVTVLG
notes: Naked antibody, made in HEK293-6E (lab scale) or CHO (1 L scale); also called IgG G7V; OMTX007-G7V
For the molecule B1, the figures for the EC50 in test [1], in test [2] and in test [5] were 1.5 nM, 4.7 nM and 0.4 nM, respectively. For the same molecule, the binding result in test [3] and in test [4] was “no binding (tested: titrated from 0.1 pM to 100 nM)” each time.
